Where no end group is shown, it is not given here.

In the assay the target is T1, CXCR4 (Homo sapiens, UniProt P61073).
T1 construct: expressed in transfected cells; host or cells: QT6 cells, calcium phosphate transfection
In words: HIV-1 gp 120-CXCR4 mediated cell-cell fusion assay (luciferase reporter). Type of assay: cell-based. The conditions noted are these: for inhibiting cell-cell fusion, compared with N-terminal SDF-1 peptides SEQ ID NOS:8 and 10: effector 293 cells + QT6 target cells (CD4, CXCR4), peptide concentration 25 μM (FIG. 1). Background: Reporter assays use an easily measured gene product as a stand-in for the process of interest.

T1 sequence (P61073 whole entry): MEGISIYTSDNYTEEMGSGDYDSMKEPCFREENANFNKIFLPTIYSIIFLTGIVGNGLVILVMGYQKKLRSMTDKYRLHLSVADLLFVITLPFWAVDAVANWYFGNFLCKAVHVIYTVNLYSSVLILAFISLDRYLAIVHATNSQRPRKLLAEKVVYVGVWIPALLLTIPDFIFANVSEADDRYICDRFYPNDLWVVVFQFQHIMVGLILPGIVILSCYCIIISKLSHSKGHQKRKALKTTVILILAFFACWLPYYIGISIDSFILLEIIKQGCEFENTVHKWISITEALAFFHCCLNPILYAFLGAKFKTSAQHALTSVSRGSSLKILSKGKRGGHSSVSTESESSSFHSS

Consider “KPVSLSYRCPCRFFGGQGLKWIQEYLEKALN (cysteine pairing not given here) [SEQ ID NO:5, SDF-1 amino acids 1-14 and 55-67 linked by a (Gly)4 bridge]”, for which the “inhibiting cell-cell fusion, compared with N-terminal SDF-1 peptides SEQ ID NOS:8 and 10” value is given as “substantially more effective”.
On to “LKWIQEYLEKALN [SEQ ID NO:9, C-terminal SDF-1 peptide prepared for comparison, reference compound]”, for which the “activity in inhibiting cell-cell fusion” value (higher concentration of 50 μM) is “only negligibly active”.
Consider “LSYRCPCRFFGGGGLKWIQEYLEKALN (cysteine pairing not given here) [SEQ ID NO:4, SDF-1 amino acids 5-14 and 55-67 linked by (Gly)4]”, for which the “inhibiting cell-cell fusion, compared with N-terminal SDF-1 peptides SEQ ID NOS:8 and 10” value is recorded as “substantially more effective”.
In the case of “LSYRCPCRFFGGLKWIQEYLEKALN (cysteine pairing not given here) [SEQ ID NO:6, SDF-1 amino acids 5-14 and 55-67 linked by (Gly)2]”, the “inhibiting cell-cell fusion, compared with N-terminal SDF-1 peptides SEQ ID NOS:8 and 10” value was “substantially more effective”.
On to “LSYRCPCRFFKKKKLKWIQEYLEKALN (cysteine pairing not given here) [SEQ ID NO:7, SDF-1 amino acids 5-14 and 55-67 linked by (Lys)4]”, for which the “inhibiting cell-cell fusion, compared with N-terminal SDF-1 peptides SEQ ID NOS:8 and 10” value was “substantially more effective”.

The values above are taken from patent publication US6613742B1, “Chemokine-derived synthetic peptides” (Thomas Jefferson University, priority 1999, dated 2003).
